One assay concerns TIM3 on primary T cells. Nature of the assay: In vivo administration of N-CEACAM1-Fc, then in vitro stimulation of lymph node cells with anti-CD3 or SEB (FIGS. 10A-10B). Further details: species or system mouse. Conditions: 100 μg intraperitoneally, lymph nodes at 10 days.
The target in another assay is T1, TIM3 (Mus musculus, UniProt Q8VIM0).
T1 construct: expressed in transfected cells; also crossed to Ceacam1-/-), with the transgene under the human CD2 promoter
Nature of the assay: Staining of primary T cells with mouse CEACAM1 N-domain Fc fusion protein with or without blocking antibody (FIG. 9). The format is binding. Conditions: primary naive T cells of TIM3 Tg mice. The text has this: Primary naïve T cells were isolated from B6 (WT) mice with transgenic (Tg) overexpression of TIM3 in T cells, wherein TIM3 is controlled by the human CD2 promotor, and TIM3 Tg mice crossed to […] (knockout) or […]. Primary T cells were stained with a mouse N-domain as an Fc fusion protein in the presence or absence of varying concentrations of a TIM3 specific monoclonal antibody, 2C12, to block binding. *, P<0.05; **, P<0.01

The subject of a further assay is CD4+T-cells. Nature of the assay: In vitro re-stimulation of CD4+ T-cells from SEB-immunized mice, TIM3 expression by FACS. It counts as cell-based, mouse.
In another assay the test system is CD4+Vβ8+ T cells. Conditions: SEB treatment in presence or absence of fusion protein.

T1 sequence (Q8VIM0 20-281): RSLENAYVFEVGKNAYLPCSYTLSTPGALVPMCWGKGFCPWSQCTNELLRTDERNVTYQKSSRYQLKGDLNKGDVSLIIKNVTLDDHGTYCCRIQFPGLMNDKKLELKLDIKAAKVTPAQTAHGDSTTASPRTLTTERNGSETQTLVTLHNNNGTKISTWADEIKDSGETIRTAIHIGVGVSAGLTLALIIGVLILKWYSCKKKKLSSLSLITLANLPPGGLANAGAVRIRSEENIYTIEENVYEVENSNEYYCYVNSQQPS

B1: CEACAM1-Fc fusion protein: mouse CEACAM1 N-domain as an Fc fusion protein; Fc for fusion protein is human (protein)
chain: EVTIEAVPPQVAEDNNVLLLVHNLPLALGAFAWYKGNTTAIDKEIARFVPNSNMNFTGQAYSGREIIYSNGSLLFQMITMKDMGVYTLDMTDENYRRTQATVRFHVHP
modifications: left off: a dimerising Fc or GST
notes: mouse CEACAM1 N-domain as an Fc fusion protein; Fc for fusion protein is human
For B1, the “Induction of tolerance (proliferation, interferon gamma production)” value with TIM3 on primary T cells is on record as “induce tolerance”. In the assay with TIM3, the “Binding to TIM3 on primary transgenic T cells” value is “binds in trans to TIM3”. Also, the “TIM3 up-regulation in response to SEB re-stimulation (Mean Fluorescence)” value in the assay on CD4+T-cells (SEB-responsive T-cells, CEACAM1 ligation with fusion protein, in vitro re-stimulation) amounted to 29%. Further, the “TIM3 expression on gated CD4+ T-cells” value in the assay with CD4+T-cells (in vitro, 0.5 mg/ml, 48 hours) is recorded as “up-regulates TIM-3 in vitro”. The “T cell receptor engagement by SEB (deletion of CD4+Vβ8+ T cells)” value with CD4+Vβ8+ T cells is listed as “not significantly influenced”.

Source of the values: US10513540B2, “Modulation of the immune response” (THE BRIGHAM AND WOMEN'S HOSPITAL, INC., priority 2012, dated 2019).
